{
  "source": "paper PMC4676704",
  "about": "“Functional Characterization of MC1R-TUBB3 Intergenic Splice Variants of the Human Melanocortin 1 Receptor” (PLoS ONE, 2015)",
  "molecular_target": "T1, Flag-tagged Iso1, MC1R-TUBB3 in-frame intergenic splice chimera (human)",
  "T1 construct": "numbers count on: MC1R-002; Tubulin-β-III, human; A BamHI site in the TUBB3 part was ablated by site-directed mutagenesis (ATC to ATT by the printed primer, silent by my reading); also called Flag-Iso1; MC1R-TUBB3 chimeric isoform Iso1; source: HEK293T, transfected (pcDNA3); not shown: Flag, N-terminal, kept",
  "experiment": "radioligand binding; equilibrium competition binding on transfected HEK293T cells, 24 h after transfection, serum deprived 3 h; 125I-NDP-MSH 5x10^-11 M with unlabelled NDP-MSH from 10^-12 to 10^-7 M",
  "conditions": "one partner purified",
  "data": [
    {"binder": "SYSLEHFRWGKPV (not fully specified; Nle at position 4; D-Phe at position 7; 125I label (tracer))", "note": "[[Nle4, D-Phe7]-αMSH (NDP-MSH), 125I-labelled]", "values": [
      {"measurement": "Kd", "result": 0.59, "unit": "nM"}
    ]}
  ]
}
